Assay: label from the status in PepcDB records

MVFSMHDKGETQENPADMSGRLNTPISTVFHFFSSLFHDALRSVAQWSAWKKIAVSVVIVAIISVTFLVDVPPISVYRDWANNAGDAFVLVFCAFYILITQFPIPRTVLTLASGVLFGPVLGSVVALGSTTVSAVISLLIVRGLLGDWMAPRLTHPAVSRINTRLEQRGWLAITSLRMIAAIPFSILNYVAALTSVPVFSFAIATLIGSAPGTIVTVVLGDAVTGSGNWTAVAFTVFLAILGVLGIFLDQKMPVKPGK
protein production: failed

MKTWIFICMSIAMLLWFLSTLRRKPSQKKGCIDAIIPAYNEGPCLAQSLDNLLRNPYFCRVICVNDGSTDNTEAVMAEVKRKWGDRFVAVTQKNTGKGGALMNGLNYATCDQVFLSDADTYVPPDQDGMGYMLAEIERGADAVGGIPSTALKGAGLLPHIRATVKLPMIVMKRTLQQLLGGAPFIISGACGMFRTDVLRKFGFSDRTKVEDLDLTWTLVANGYRIRQANRCIVYPQECNSPREEWRRWRRWIVGYAVCMRLHKRLLFSRFGIFSIFPMLLVVLYGVGIYLTTWFNEFITTGPHGVVLAMFPLIWVGVVCVIGAFSAWFHRCWLLVPLAPLSVVYVLLAYAIWIIYGLIAFFTGREPQRDKPTRYSALVEASTAYSQPSVTGTEKLSEA
protein production: failed

RPDVSRQSQFHTMALVNLSAKMIESCYFLRHFEQQWLLRFHLQAESVGLFSEGLLAFDGDGRICAANQSALNLLGTVRGGVLGKPLECFFACSHDEMFSRATPGG
protein production: failed

MINKKTTSENRRILQIAVPSIISNITVPLLGLIDVTIVGHLGSPAYIGAIAVGGMLFNIIYWIFGFLRMGTSGMTSQAYGQHDLNEINRLLIRSVGVGLFIALCLLILQYPILNAAFTLIQTTEEVKQLATTYFYICIWGAPAMLGLYGFAGWFIGMQNSRFPMYIAITQNIVNIIASLSFVYLLDMKVAGVAAGTLIAQYAGFFMAILLYMRYYSTLRKRIVWKDIIQKQAMYRFFRVNRDIFFRTLCLVIVTMFFTSAGAAQGEVVLAVNTLLMQLFTLFSYIMDGFAYAGEALAGRYIGARNQTALRNTVNHLFYWGIGLSAAFTLLYAIGGKEFLGLLTNDVSVISSSDTYFYWALAIPLTGFSAFLWDGVFIGATATRQMLYSMLVASVSFFMIYYAFHNLLGNHALWLAFITYLSLRGIVQTFIGREIVKKAI
protein production: failed

MFERFTDRARRVIVLAQEEARMLNHNYIGTEHILLGLIHEGEGVAAKALESMGISLDAVRQEVEEIIGQGSQPTTGHIPFTPRAKKVLELSLREGLQMGHKYIGTEFLLLGLIREGEGVAAQVLVKLGADLPRVRQQVIQLLS
protein production: not failed

VLMDEGAVLTLAADLSSATLDISKQWSNVFNILRENDFEPKFLCEVKLAFKCDGEIKTFSDLQSLRKFASQKSSMKELLKDVLPQKE
protein production: not failed

MSLKTNFVKYERKDNKDLCEITLENDAGMAVKVLNYGATLEKVLLDGENMILSLNSPEDYSKERNFLGGTVGRIAGRVRAGQWKHGNEIHQLPLNDGDNHIHGGIGTDMHVWDFRPSCDSEHARVDLTLFDPDGNNDYPGNLKLHARYELDNENNLHYLLEAVSDKLTIFNPVNHTYFNLGERAEDLNLQMNADYYLPVDEAGLPDRGMAEVAGTAFDFRKTKRIGDALNSDDSQIKLRNGLDHPFILNGNNPAALLSSNKHRLIVKTNAPALVLYAGNHFNHTGIVNNIGQYDGITFEAQCPPAEGNDLGQITLLPFEKFKRTVDWKFEEGHHHHHH
protein production: not failed

MNSMKLYIFACLCSLILWGVSCNEESAGIPTGSLFLGIEEDATLLTKAESAVTNESLRVDIIAAEGDTIKSYSDYIDEVKGKKIVLPVGTYTISVKSNQSEEAGWEKPFYSGSKEITIQSGEITSVQIVCKISNTKVAVEYADNLADYFSHYETTVSNTSGSLLYTRDETRAGFFKAEKLTADLKLVNQDGNEFAMQRVFPDIKERYFYKIKYSLDDGGGDNEEAGADFGGIIVDEKADTIYYGIFIKQEDLFGKSVPKLALDGFTENKIVYKKTENPSVPEHSLTIEAPNGIKQLKVETTSFQFADVPSFDLCNLTDAARTRLQQLDFPMQEVKDKQELTFVLTDFAKALEPASVTQMATHTFTFSVLDNLHQETTVQFIYEIRPNVNVTTEEPVVWAKFVTLRGNSIDRDNIGFMLKKKADADFQRYDATIYNEQTGDFSLLLIENIMPGTEYEYYAVSGTDAQGNVKTFTTSPIVNLKNNTFDEWFKNGKTWFPNVDVSKWWDSGNTGANTAGENNPTSPEESVVVKGKAAKLQSTWIGFIGIGAFASASMFTGNFVDIDGTNGILSFGQPFTAKPTKLTGYYKYTPVNIDYMEQWDSKVDPDLKSGDSDQCIIYIALCTKNYEIRTNPKSRQLFDPNDASVIAYGELVAKEAVSGEEANGYKKFSIDIKYRKTDVTPSYIVVVAAASRYGDYFTGGKGSTLYIDEFNLEYDYNAASFTNE
protein production: failed

MSPIARAALWMTGAIASFSAMAVAGRELSAVHDTFEIMMYRSFVGVLVVSLILSVTGTWHQVSTRALGLHALRNAVHFTGQNLWFFAVTVIPLAQVFALEFTQPLWVILLSPLLLGERMTRVRVAAAVIGFVGILIVARPGASSLNIGILTAALSAIFFAMTTISTKKLTRLASIGCIMFWLTVMQAVLGLVASGHDGQIALPTLGTAPYLVLVGLAGLLAHYCITNALAIAPATVVVPIDFARLPTIAVVGMLLYGEALDIWVLVGAAVIFAGNYLNILAETRNTAR
protein production: failed

MVLHVMLGEVVTKFLNMNNGVGEGGSQQRELHGKRKLFRGNDFAFSIARMAVAQICESVEVNPYQESQTREGVRFSSFQESALDTLTDVAVQYIQSIGKTAHLYANLAGRVDGNSLDILQALEDLGSGLGFAGVSDTDHCLADSGVVKDIIRYTGEAEEIPFVYSLPRFPFSKEKKPAPSFSEVGAEPPDEHIPVWLPAFPETELCDRSEETNAATIEGEIPSKENGSSLPSMQLSFDGGGRLEIHKSSKDVGESTEAVVEGNLFLTAPLRFVEKNVSPVVRPLELSNEVVRTNHVPDKHVRNNHHIPILEASAPSDKINNKNWLAISKDVEKVDVARKELTLVRFKIGTTKRSMCLAKNRSFQEEGWFQEGEDKREKTSEIKEKRERIDSQLSTQM
protein production: failed

MTQGTARAQQNNIPVGIALMLAATVVFALQDGISRHLASSYNTYMVVMIRYWFFAAFVIALAARSRGGLRAATRTAQPGLQIFRGLLLASEICVAVFAFTVLGLIESMAVFICYPLLVAALSGPVLGEKVGWRRWAAIGVGLVGVLIILQPGMGVFNPWAVVPLISALMFALYGLLTRYAARQDSTATSFFWTGVTGAVAMTAVGLWFWEPMSAPDWRWMALLCVSGALGHWLLIKCYEMAEASAVQPFAYFHLMWTAILGITVFGETLRSAVIIGAALIVAAGLFTLWRERAQSRSR
protein production: failed

QYHDHHKDQYQMDAAHVPNKTPLYITDILSLRGKKDSGPARDSIRDSIDRIEFTDFQLHELTGRWLSENMPEGFKSDRFRFLARTITASEEAPVEGSDGEIRIKPNLYILVWEPSFYEELLTRDYFFLFPPEILKQHTLVFQLYSFFRSRMVRRHTDCMLLSELNQKLARNIEWRRFSMDLIRELKRLSDGKGTDDLFVVNLWGYHLTIETMIENDKVMDYQIDIKCDVEEVLRYSRARTTNAGKRNMAPTLPNPLRNEMVTRQQLEALSGIIDGEFEPIQRKTPSPRGNLGRRVKQRKHLVEINADEITITLSKYTSPEALERSITALSAMTGHSYASIKEECSEYIEKLDWLRVGDEPIPYETLSKTVELFNTQNEVKHLTIERLIAGLAVRRKVCRQVFDGHMDEMVFRALDEMAI
protein production: failed

MKKLMITQEAGVATVLIKNPPVNILTIDLINELNAFILSLKDDRETKVVVFKSFHEAFFIAHLDLNVINGTSGGQAASIEFNHMIANIKAMKQLSIAVVDGVARGGGNEFVMACDLAYGTENSAFAQPELYINIPTGGQGAVQFARRLGKGKALQALLTGADFTAQQAETLNIITQFVLKAELDVFLAQLLSVIVGWEIRDIVMYKEIIAASIKDEAVGTELELRYFLERAREEKTQTIIAAFLKHGGQTEREAKDMQGIFVDTAAELSK
protein production: failed

MSKDVKPTRKNLMAIEDRIELSERGHDTLEKKRDGLIMEFMDILDQAQDVRSDLDENYERAQRNINMARAMEGDVAVRGAAAALKEHPEITTQSKNIMGVVVPQIESTKVKKSLDQRGYGLVGTSARIDEAADAYEELLETIILAAEVETAMKKMLDEIEKTKRRVNALEFKLLPELHEAQEYIEQKLEEQEREEIFRMKKIKAKKEEEEEENPVADTESAAEAAVTEAGQ
protein production: failed

MPSGQEGLDKFHNLNKGKTMFMQRLITTLILVPLVLLAIFYAPSWILWGVVLVILLLAGMECFKLIPVDNLTVQACFLIFLLMCFWACGYFYSYWLSVGLLVWLLNGLAILTYPRSQNYWGYPIVVAIASLILLPLFTQSLMQISFLQQGKELLVYLLFLIWASDIGAYLTGKQWGKHKLIPKVSPGKSWEGVTGGVILAMIVATLGYYYFIPYSIYIWFGLALSTVVISIFGDLFISILKRRCQLKDTGNIIPGHGGILDRLDSLIAALPWFYFGLTYIPLGI
protein production: failed

PALPYAKSLAPVDLTDCSAQALETARQLGLLQRTKLIVMHVYDAAAAGMLNYAGVDKTSLDDYLVDTRTDAVRDLVRFLEPLRLDDVDYSTVVKEGAGPATDIIEAATELRPDLVVIGTHARRGAVRLLLSSVTEEVLRRLQRDILVVPVRDAGS
protein production: failed

ERLETAQDLLELEGITPELAAKLAERQVHTRDDLAELSTDELAEIAGLQEEEASDLIMRARAHWFDEE
protein production: failed

DPAVLLDRAGRVIHLNAAAAQLAPALRVRELAQFALRSPEIVTALREAIATSEPRRVTYLDHGSIERWLELIIAPVQVPTAFGGTDQCMLMTFHDLTPLRRVEEMRADFVANASHELRTPLAALSGFIDTLQGQAR
protein production: failed

MNPKVKGIIAILVSAIGFSFMSVFFRLAGDLPVFQKSLARNLVAMFIPLYFIYKYKQPLFGKLSSQPLLISRSTLGLIGVLLNIYAIDHMILSDADTLMKLNPFWTILLSLIFLNEKVRNYQIIAMVIAIFGMLFVVKPEFSSSMIPAIGGLFSGIFAASAYTCVRALSTREAPYTIVFYFSFFSIVVLIPFTIFTFEPMSMMQVIYLIGAGLAAAAGQIGITLAYSYAPAKDISIFTYASIIFTAFFGFILFGESPDFYAILGYVIIIASSYYMFEKARRQPLSIQKEEQKPKT
protein production: failed

RLEDLGAASAARLLDAAEERLGRPCGRMERYGRVEREVVAAAEGAELLIVARDGDRARLGPHSLGPASRFVVDHAPCPVLLVWPAPAPGLGTIPPPPHP
protein production: not failed

MSIWWLNNTVRVAREKEAVENLATETEWFVLDRWEIHDYKFAAIGSIVAHGATYPIRLVYPDNFPLVPAWVEPQDPEAKWSYHQYGKGGALCLELRPDNWTSRANGADVLRSAYGLLNLENPLGDGEKGKVTSAHNVGEIQKYNWGESPVFIGQECLTRLLSGDIQDVNALRWSASDKVWPIFLSDAVDRQGVQRPPSADLNTWRLHVPVALVSGKVPDGLPSERSTFISTLWESSPVEGEVNFVTVFIEDDGINVFHVLSDNAYHRKVYVLPPETGLRSGRAPSAQAKKVAVVGAGSVGSKVAEMLLRSGIDTLRIFDGDVFLPGNLERHVLDWRDVGYHKVHGLKRRLLHIVPGADIMTIDQNLNWQKSARTNALHFDLITACDIIVDASGDPATSMLLGALAFENKKPFVSVEVFEGGIGALVAPSVPERNAAYTLGREALLNWTDEKGRVVPLSAGDRAYEAISDDGDIIVADDAAISMAASHAARVVLDILDDKLDDFRWLLIGFRKEWAFDMHGHVIALDVGGPSEWNNNTEDADAQKFVIEIAGELLDVLKAFTQ
protein production: failed

MQIVQIARPGSMKGWIRKAVARYAHATGRGGKFYRRFCNPSGLEWGAYLARWGNFHSVGSNFYVNTGCKFLDPSLVRIGNSVGLSDCTLIGHDGVVLLIEHRFGKHLDSVGFIDIKDNCFIGHGAIVMPRVTIGPESIVAAGAVVTKDVPPGTVYGGNPAEFICTTEQLIKRVEARCEAYPWIDLVKQRNGAYDPEVEPLLMAQRRQYFFGDSLEHHHHHH
protein production: failed

From a protein production outcome set (Wang et al. 2014)
